Measured values taken from article PMC7307210, “Small sequence variations between two mammalian paralogs of the small GTPase SAR1 underlie functional differences in coat protein complex II assembly” (The Journal of Biological Chemistry, 2020).

Biological target: the molecule itself
Assay: liposome aggregation assay (nanoparticle tracking); 1 μg SAR1 with 100-nm liposomes and GMP-PNP in HKM buffer, 3 h at 37 °C; particle number and size by NanoSight; self-association on a membrane surface

Row | Protein | binding result
1 | SAR1B (natural protein, human SAR1B, full-length (198 residues), with the N-terminal amphipathic helix; also called Secretion-associated Ras-related GTPase 1 B; source: E. coli, purified as GST fusion (GSH-agarose), eluted by thrombin cleavage) not shown | binds
2 | SAR1A (natural protein, human SAR1A, full-length (198 residues), with the N-terminal amphipathic helix; also called Secretion-associated Ras-related GTPase 1 A; source: E. coli, purified as GST fusion (GSH-agarose), eluted by thrombin cleavage) not shown | binds
